According to paper PMC5336186 (Nature cell biology, 2017):

Columns and labels:
[1] = target: T1, GST-LLGL2, unphosphorylated (No-P) (UniProt Q6P1M3 1-1020); assay: pull-down
T1 sequence (looked up): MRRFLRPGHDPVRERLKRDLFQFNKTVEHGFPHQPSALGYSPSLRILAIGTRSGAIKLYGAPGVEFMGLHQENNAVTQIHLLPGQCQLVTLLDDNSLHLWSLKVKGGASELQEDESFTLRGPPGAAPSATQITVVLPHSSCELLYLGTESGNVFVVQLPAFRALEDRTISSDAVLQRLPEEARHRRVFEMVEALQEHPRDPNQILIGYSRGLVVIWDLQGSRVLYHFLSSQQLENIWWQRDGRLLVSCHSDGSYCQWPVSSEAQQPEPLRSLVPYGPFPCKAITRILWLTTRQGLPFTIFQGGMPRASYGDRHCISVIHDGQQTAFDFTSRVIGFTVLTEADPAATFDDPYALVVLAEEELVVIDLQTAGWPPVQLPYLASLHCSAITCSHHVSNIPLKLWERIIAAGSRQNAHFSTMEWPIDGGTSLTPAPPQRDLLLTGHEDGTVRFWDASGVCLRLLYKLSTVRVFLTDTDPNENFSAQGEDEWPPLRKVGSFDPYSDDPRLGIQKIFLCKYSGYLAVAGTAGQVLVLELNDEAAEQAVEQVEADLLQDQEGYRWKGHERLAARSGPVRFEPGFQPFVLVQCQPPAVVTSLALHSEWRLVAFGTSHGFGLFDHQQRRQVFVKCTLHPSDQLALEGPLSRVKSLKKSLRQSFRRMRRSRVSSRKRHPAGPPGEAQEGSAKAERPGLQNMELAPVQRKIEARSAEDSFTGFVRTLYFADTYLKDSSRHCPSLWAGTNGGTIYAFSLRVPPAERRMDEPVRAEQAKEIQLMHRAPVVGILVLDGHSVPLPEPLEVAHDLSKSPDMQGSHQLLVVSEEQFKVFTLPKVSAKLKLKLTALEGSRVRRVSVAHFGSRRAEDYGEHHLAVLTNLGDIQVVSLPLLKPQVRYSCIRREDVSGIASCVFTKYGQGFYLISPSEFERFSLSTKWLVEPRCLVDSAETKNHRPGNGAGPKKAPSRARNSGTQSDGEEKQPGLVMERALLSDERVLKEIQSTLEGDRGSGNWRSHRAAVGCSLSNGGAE

[2] = target: T2, GST-LLGL2 phosphorylated at Tyr499 (P-LLGL2) (UniProt Q6P1M3 1-1020, phosphotyrosine at Tyr499); assay: pull-down
T2 sequence (looked up): T1 sequence (looked up)

binding result [1]: binds
binding result [2]: binds
B1: recombinant BCAR3 (natural protein, UniProt O75815 1-825, looked up)
chain: MAAGKFASLPRNMPVNHQFPLASSMDLLSSRSPLAEHRPDAYQDVSIHGTLPRKKKGPPPIRSCDDFSHMGTLPHSKSPRQNSPVTQDGIQESPWQDRHGETFTFRDPHLLDPTVEYVKFSKERHIMDRTPEKLKKELEEELLLSSEDLRSHAWYHGRIPRQVSENLVQRDGDFLVRDSLSSPGNFVLTCQWKNLAQHFKINRTVLRLSEAYSRVQYQFEMESFDSIPGLVRCYVGNRRPISQQSGAIIFQPINRTVPLRCLEEHYGTSPGQAREGSLTKGRPDVAKRLSLTMGGVQAREQNLPRGNLLRNKEKSGSQPACLDHMQDRRALSLKAHQSESYLPIGCKLPPQSSGVDTSPCPNSPVFRTGSEPALSPAVVRRVSSDARAGEALRGSDSQLCPKPPPKPCKVPFLKVPSSPSAWLNSEANYCELNPAFATGCGRGAKLPSCAQGSHTELLTAKQNEAPGPRNSGVNYLILDDDDRERPWEPAAAQMEKGQWDKGEFVTPLLETVSSFRPNEFESKFLPPENKPLETAMLKRAKELFTNNDPKVIAQHVLSMDCRVARILGVSEEMRRNMGVSSGLELITLPHGHQLRLDIIERHNTMAIGIAVDILGCTGTLEDRAATLSKIIQVAVELKDSMGDLYSFSALMKALEMPQITRLEKTWTALRHQYTQTAILYEKQLKPFSKLLHEGRESTCVPPNNVSVPLLMPLVTLMERQAVTFEGTDMWEKNDQSCEIMLNHLATARFMAEAADSYRMNAERILAGFQPDEEMNEICKTEFQMRLLWGSKGAQVNQTERYEKFNQILTALSRKLEPPPVKQAEL
